The values below come from patent publication US20220112288A1 (published 2022).

Where a chain is given by its changes, count along the chain named.

The labels stand for the following.
B1: 75110_14N19A (antibody, V domains shown)
VH: QVQLQESGPGLVKPSETLSLTCTVSGGSISRYYWSWIRQPAGKGLEWIGRICTSENPNYNPALKSRVTMSVDTSKNQFSLKLSSVTAADTAVYYCARELERLNYYGMDVWGQGTTVTVSS
VL: DIQMTQFPSSLSASVGDRVTITCQASQDISNYLNWYQQKPGKAPKLLIYDASNLESGVPSRFSGRGSGTDFTFTISSLQPEDFATFYCQQYDTLPITFGQGTRLEIK
notes: Tested as non-clonal AlivaMab Mouse Kappa hybridoma supernatant, captured by anti-mouse IgG Fc sensor
B2: 75110_04B08A (antibody, V domains shown)
VH: QVQLVESGGGVVQPGRSLRLSCTASGFNFINYGIHWVRQAPGKGLEWVTIIWYDGSKKYYADSVKGRFAISRDNSKNTLYLQMNSLRAEDTAVYYCAREDDWNDGLAYWGQGTLVTVSS
VL: AIQMTQSPSSLSASVGDRVTITCRASQDIRNDLGWYQQKPGKAPNLLIYAASNLQSGVPSRFSGSGSGTDFTLTISSLQPEDFATYYCLQDSNYPRTFGQGTKVEIK
notes: as for B1
B3: 75110_14P05A (antibody, V domains shown)
VH: EVQLVESGGGLVQPGGSLRLSCAASGFTFSSYDVHWVRQATGKGLEWVSTIGTAGDTYYPGSVKGRFTISRENAKNSLYLQMNSLRAGDTAVYYCARGGFYYYGMDVWGQGTTVTVSS
VL: EIVLTQSPGTLSLSPGERATLSCRASQSVSSSYLAWYQQKPGQTPRLLIYGASSRATGIPDRFSGSGSGTDFTLTISRLEPEDFAVFYCQQSGSSPFTFGPGTKVDVK
notes: as for B1
B4: 75110_10L22A (antibody, V domains shown)
VH: B3 VH with V34M, S84G, G99N, F100Y, Y101F, M105V
VL: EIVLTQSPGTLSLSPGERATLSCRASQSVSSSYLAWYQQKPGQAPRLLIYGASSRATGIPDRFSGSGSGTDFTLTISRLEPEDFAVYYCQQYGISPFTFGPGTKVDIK
notes: as for B1
B5: 75110_01E08A (antibody, V domains shown)
VH: B3 VH with S30N, S31N, V34M, G61A, S70Y, F100D
VL: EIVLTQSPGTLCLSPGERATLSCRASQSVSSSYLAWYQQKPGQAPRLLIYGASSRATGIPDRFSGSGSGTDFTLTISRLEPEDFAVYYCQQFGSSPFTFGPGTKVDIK
notes: as for B1
B6: 75110_02E08A (antibody, V domains shown)
VH: QVQLQESGPGLVKPSETLSLTCTVSGGSISTYYWTWIRQPAGKGLEWIGRVYTSGDTNYNPSLKSRVAMSLDTSKNQFSLKLSSVTAADTAVYYCARDSGALYSWNYGDAFDIWGQGTMVTVSS
VL: DIQMTQSPSAMSASVGDRVTITCRASQDISNYLAWFQQKPGKVPKRLIYAASSLQSGVPSRFSGSGSGTEFTLTISSLQPEDFATYYCLQHNSYPRTFGQGTKVEIK
notes: as for B1
B7: 75110_11D03A (antibody, V domains shown)
VH: EVQLVESGGGLVQPGGSLRLSCAASGFTFSSYWMSWVRQAPGKGLEWVANINQDGNEKYYVDSVKGRFTISRDNAKNSLFLQMNSLRAEDTAVYYCAREGGQWLALDYWGQGALVTVSS
VL: DIQMTQSPSSVSASVGDRVTITCRASQGISSWLAWYQQKPGKAPKFLISGASSLQSGVPSRFSGSGSGTDFTLTISSLQPEDFATYYCQQANSFPWTFGQGTKVEIK
notes: as for B1
B8: 75110_05L07A (antibody, V domains shown)
VH: B7 VH with N56S, E57D, A75V, F80Y, M83I, A105T, A113T
VL: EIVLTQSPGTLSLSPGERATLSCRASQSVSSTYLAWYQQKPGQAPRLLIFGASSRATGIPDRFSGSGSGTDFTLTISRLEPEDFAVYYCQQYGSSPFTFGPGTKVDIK
notes: as for B1
B9: 75110_01J09A (antibody, V domains shown)
VH: B7 VH with A23V, I51T, N52K, Q53E, N56S, E57D, S71C, F80Y, A113T
VL: B7 VL with T22N, K45N, F46L, S49F, S67F, T72S, S76T, S77T, Y87H
notes: as for B1
B10: 75110_03C01A (antibody, V domains shown)
VH: QVQLQQWGAGLLKPSETLSLTCAVYGGSFSGYYWSWIRQSPGKGLEWIGEINQSGSTNYNPSLKSRVTISVDTSKDQFSLKLSSVTAADTAVYYCARVINWFDSWGQGSLVTVSS
VL: B7 VL with K42N, F46L, S49Y, G50D, L54F, P80T, W96Y, V104L
notes: as for B1
B11: 75110_03L12A (antibody, V domains shown)
VH: B10 VH with S40P, Q53H, K75E, D76N, K81T, S83I, A96V, V98L, S104P, S109T
VL: B7 VL with G28D, S31N, F46L, S49F, G50A, E81D, W96Y, K103N, V104L, E105G
notes: as for B1
B12: 75110_09G15A (antibody, V domains shown)
VH: B7 VH with S31D, N56S, Y60S, F80Y, V93I, Y94F, A113T
VL: B7 VL with F46L, S49Y, S76N, A84T, S93I
notes: as for B1
B13: 75110_12C19A (antibody, V domains shown)
VH: B7 VH with N52K, Q53E, N56S, E57D, F80Y, Y94H, A97V, A113T
VL: B7 VL with A13G, F46L, S49Y, A84V
notes: as for B1
B14: 75110_07B16A (antibody, V domains shown)
VH: B10 VH
VL: B7 VL with F46L, S49Y, G50D, L54F, P80T, E81D, W96Y, V104L
notes: as for B1
B15: 75110_03D16A (antibody, V domains shown)
VH: B7 VH with N56G, F80Y, A97V, A113T
VL: B7 VL with A34T, S49Y, G50A, S67F
notes: as for B1
B16: 75110_01A06A (antibody, V domains shown)
VH: B7 VH with Q53E, F68L, F80Y, Y95F, A105S
VL: B7 VL with T20S, F46I, S49Y
notes: as for B1
B17: 75110_12H17A (antibody, V domains shown)
VH: B7 VH with S31D, N52K, Q53E
VL: B7 VL with S63T
notes: as for B1
B18: 75110_04K10A (antibody, V domains shown)
VH: B7 VH with N56S, F80Y, M83L, V93M, A105S, A113T
VL: B7 VL with F46V, S49Y, A51V, L54F, T72I
notes: as for B1
B19: 75110_09N20A (antibody, V domains shown)
VH: B7 VH with Q53E, N56S, F80Y, A97V, A113T
VL: B7 VL with F46L, S49Y, G50A, R61S, S76N, E105A
notes: as for B1
B20: 75110_07H07A (antibody, V domains shown)
VH: B7 VH with L4V, N52K, Q53E, D54E, N56S, F80Y, A97V, A113T
VL: B7 VL with A13G, F46L, S49F, E105Q
notes: as for B1
B21: 75110_02N15A (antibody, V domains shown)
VH: B7 VH with Q53E, Y95F, Y108H
VL: B7 VL with I106F
notes: as for B1
B22: 75110_01D24A (antibody, V domains shown)
VH: B10 VH with S40P, Q53H, K75E, D76N, S83N, V98L, I99V, S104P, S109T
VL: EIQMTQSPSSVSASVGDRVTITCRASQDISNWLAWYQQKPGKAPNLLIFAASSLQTGVPSRFSGSGSGTDFTLTISSLQPDDFATYYCQQANSFPYSFGQGTNLGIK
notes: as for B1
B23: 75110_12H19A (antibody, V domains shown)
VH: B7 VH with K43Q, Q53E, Y60H, F68L, F80Y, A88G, E89V, Y95F
VL: B7 VL with T20S, F46L, S49Y, S53G
notes: as for B1
B24: 75110_14I16A (antibody, V domains shown)
VH: QVQLQESGPGLVKPSETLSLTCTVSNGSISSYYWSWIRQSAGKGLEWIGRIYTSGSTNYNPSLKSRVTMLVDTSKNQFSLKLSSVTAADTAVYYCARDREDYYYYGMDVWGQGTTVTVSS
VL: DIQMTQSPSSLSASVGDRVTITCQASHDISNYLNWYQQKPGKAPKLLLYYASNLETGVPSRFSGSGSGTDFTFTITSLQPEDIGTYSCQQYDNLPLTFGGGTKVEIK
notes: as for B1
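Wherever Kd is given: Single-concentration kinetics per supernatant, with the 1:1 model fitted across both the association and dissociation phases of the sensorgram.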
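Wherever koff is given: Single-concentration kinetics per supernatant, with the 1:1 model fitted across both the association and dissociation phases of the sensorgram.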
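Wherever kon is given: Single-concentration kinetics per supernatant, with the 1:1 model fitted across both the association and dissociation phases of the sensorgram.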

The target of one test is T1, Recombinant human CD4 (R&D Systems, Cat. 10327-CD) (human, UniProt P01730 26-390, limits assumed).
T1 construct: Bought reagent; also called huCD4
Kind of test: BLI Octet, non-clonal supernatant on AMC sensor, 100 nM human CD4, 1:1 local fit. (In BLI a coated tip is dipped into the sample, and binding shifts an interference pattern.)
On to B1, for which the equilibrium dissociation constant (Kd) (usually the equilibrium constant for the complex coming apart) was 19.2 nM, the koff (usually the rate constant with which the complex falls apart) is 0.00274 s⁻¹ and the kon (usually the rate constant with which the complex forms) came to 143000 M⁻¹ s⁻¹.
Take B2: the Kd was found to be 5.2 nM, the koff was 0.0012 s⁻¹ and the kon was found to be 230000 M⁻¹ s⁻¹.
In the case of B3, the Kd was 12.3 nM, the koff turned out to be 0.00185 s⁻¹ and the kon amounted to 150000 M⁻¹ s⁻¹.
For the molecule B4, the Kd was found to be 117 nM, the koff turned out to be 0.0065 s⁻¹ and the kon amounted to 55700 M⁻¹ s⁻¹.
The matching figures for B5: 10 nM, 0.0014 s⁻¹ and 140000 M⁻¹ s⁻¹.
Taken in the same sequence, the figures for B6 were 1.5 nM, 0.00051 s⁻¹ and 330000 M⁻¹ s⁻¹.
Taken in the same sequence, the figures for B7 were 4.67 nM, 0.000524 s⁻¹ and 112000 M⁻¹ s⁻¹.
Take B8: the equilibrium dissociation constant (Kd) is 13 nM, the koff is 0.0014 s⁻¹ and the on-rate constant (kon) came out at 100000 M⁻¹ s⁻¹.
The matching figures for B9: 11 nM, 0.0013 s⁻¹ and 120000 M⁻¹ s⁻¹.
The matching figures for B10: less than 0.001 nM, less than 1e-07 s⁻¹ and 150000 M⁻¹ s⁻¹.
In the case of B11, the equilibrium dissociation constant (Kd) was 2.8 nM, the dissociation rate constant (koff) turned out to be 0.00048 s⁻¹ and the kon came out at 170000 M⁻¹ s⁻¹.
Taken in the same sequence, the figures for B12 were 290 nM, 0.011 s⁻¹ and 37000 M⁻¹ s⁻¹.
Turning to B13, the Kd is 0.627 nM, the koff amounted to 9.63e-05 s⁻¹ and the association rate constant (kon) is 154000 M⁻¹ s⁻¹.
The matching figures for B14: 0.79 nM, 0.00013 s⁻¹ and 160000 M⁻¹ s⁻¹.
As to B15, the dissociation constant Kd came out at 6 nM, the koff stood at 0.0013 s⁻¹ and the kon was 220000 M⁻¹ s⁻¹.
The matching figures for B16: 11 nM, 0.0013 s⁻¹ and 120000 M⁻¹ s⁻¹.
In the case of B17, the dissociation constant Kd was 9.6 nM, the dissociation rate constant (koff) came out at 0.0032 s⁻¹ and the association rate constant (kon) was 330000 M⁻¹ s⁻¹.
On to B18, for which the Kd was 6.3 nM, the dissociation rate constant (koff) amounted to 0.0018 s⁻¹ and the on-rate (kon) was determined as 290000 M⁻¹ s⁻¹.
The matching figures for B19: 15 nM, 0.0019 s⁻¹ and 130000 M⁻¹ s⁻¹.
The matching figures for B20: 3.1 nM, 0.00035 s⁻¹ and 110000 M⁻¹ s⁻¹.
The matching figures for B21: 6.7 nM, 0.00069 s⁻¹ and 100000 M⁻¹ s⁻¹.
Consider B22, for which the Kd stood at 1.1 nM, the koff came out at 0.00013 s⁻¹ and the kon worked out at 110000 M⁻¹ s⁻¹.
Take B23: the Kd is 4.2 nM, the koff was found to be 0.0012 s⁻¹ and the kon is 290000 M⁻¹ s⁻¹.
Taken in the same sequence, the figures for B24 were less than 0.001 nM, less than 1e-07 s⁻¹ and 42700 M⁻¹ s⁻¹.

The next test addresses T1, Recombinant human CD4 (R&D Systems, …). Kind of test: BLI Octet, non-clonal supernatant on AMC sensor, 100 nM human CD4.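 Further: hybridoma supernatants diluted 1:3, antibodies captured on AMC biosensors, association and dissociation with CD4 followed, curves smoothed and fit locally with 1:1 binding model for single-point kinetics.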
Take B1: the Response came to 0.105.
As to B2, the Response came to 0.14.
As to B3, the Response was found to be 0.149.
With B4, the Response came out at 0.113.
The same measure, in the same setting: the result for B5 reads 0.1; that for B6, 0.08.
As to B7, the Response was determined as 0.177.
As to B8, the Response amounted to 0.12.
On the same count and under the same terms, the result for B9 reads 0.28; that for B10, 0.09.
The same measure, in the same setting: the result for B11 reads 0.21.
Consider B12, for which the Response was determined as 0.1.
The same measure, in the same setting: the result for B13 reads 0.106.
On the same count and under the same terms, the result for B14 reads 0.21; that for B15, 0.25.
B16: the Response was determined as 0.28.
In the case of B17, the Response was determined as 0.09.
For the molecule B18, the Response is 0.23.
The same measure, in the same setting: the result for B19 reads 0.13; that for B20, 0.2; that for B21, 0.16.
For the molecule B22, the Response was 0.26.
Take B23: the Response came to 0.09.
On the same count and under the same terms, to B24 belongs 0.0852.
